Values of other authors in publication PMC5912896.

Target: Akt PH domain (Homo sapiens) (UniProt P31749)
Sequence of UniProt P31749 (P31749 2-111): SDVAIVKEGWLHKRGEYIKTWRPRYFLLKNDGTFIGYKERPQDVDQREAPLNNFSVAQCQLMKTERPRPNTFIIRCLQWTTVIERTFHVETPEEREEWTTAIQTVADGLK

Kd: 18 µM
Substance: Akt-in peptide (TCL1 A strand)
